B1: 03G07R3 VHH Mono-Fc (Fc fusion)
chain: EVQLVESGGGLVQAGDSLRLSCAASGRTLSFDTYAMAWFRQAPGKEREFVASIDYNGGSTDYADSVKGRFTVTRDNAKNTVTLRMNSLKPDDTAVYYCASARYYRSGTSFPVNYWGQGTQVTVSSSPAPELLGGPSVFLFPPKPKDTLMISRTPEVTCVVVDVSHEDPEVKFNWYVDGVEVHNAKTKPREEQYNSTYRVVSVLTVLHQDWLNGKEYKCKVSNKALPAPIEKTISKAKGQPREPQVYTKPPSREEMTKNQVSLSCLVKGFYPSDIAVEWESNGQPENNYKTTVPVLDSDGSFRLASYLTVDKSRWQQGNVFSCSVMHEALHNHYTQKSLSLSPGK
B2: 01E10R2 VHH Mono-Fc (Fc fusion)
chain: EVQLVESGGGLVQAGGSLRLSCAASGRTLSVDRMGWFRQVPGKEREFIAARTWSGSSTYIYYADSVKGRFAISRDRAKNTIDLQMNSLKLEDTGAYYCAADVRGGSYDVRRDEGYAYWGQGTLVTVSSSPAPELLGGPSVFLFPPKPKDTLMISRTPEVTCVVVDVSHEDPEVKFNWYVDGVEVHNAKTKPREEQYNSTYRVVSVLTVLHQDWLNGKEYKCKVSNKALPAPIEKTISKAKGQPREPQVYTKPPSREEMTKNQVSLSCLVKGFYPSDIAVEWESNGQPENNYKTTVPVLDSDGSFRLASYLTVDKSRWQQGNVFSCSVMHEALHNHYTQKSLSLSPGK
B3: 02D07R3 VHH Mono-Fc (Fc fusion)
chain: EVQLVESGGGLVQPGGQLRLSCAASGSIASIRDMAWYRQAPGKQRELVAIFARGGTTHYADSVKGRFTISRDNAKNTVYLQVNSLEPEDTAAYYCNAEVATMFQPGFRDYWGRGTQVTVSSSPAPELLGGPSVFLFPPKPKDTLMISRTPEVTCVVVDVSHEDPEVKFNWYVDGVEVHNAKTKPREEQYNSTYRVVSVLTVLHQDWLNGKEYKCKVSNKALPAPIEKTISKAKGQPREPQVYTKPPSREEMTKNQVSLSCLVKGFYPSDIAVEWESNGQPENNYKTTVPVLDSDGSFRLASYLTVDKSRWQQGNVFSCSVMHEALHNHYTQKSLSLSPGK
B4: 01G02R2LS VHH Mono-Fc (Fc fusion)
chain: QVQLVESGGGLVQAGDSLALSCAGSGDTFSNYAMGWFRQAPGKEREFVADISWYGANIGYADSVKGRFTISRDNAKNMVTLRMNSLKPEDTAVYYCAADRNHWPVKGDYWGQGTQVTVSSSPAPELLGGPSVFLFPPKPKDTLMISRTPEVTCVVVDVSHEDPEVKFNWYVDGVEVHNAKTKPREEQYNSTYRVVSVLTVLHQDWLNGKEYKCKVSNKALPAPIEKTISKAKGQPREPQVYTKPPSREEMTKNQVSLSCLVKGFYPSDIAVEWESNGQPENNYKTTVPVLDSDGSFRLASYLTVDKSRWQQGNVFSCSVMHEALHNHYTQKSLSLSPGK
B5: 01H04R3 VHH Mono-Fc (Fc fusion)
chain: EVQLVESGGGLVQPGGSLRLSCAASGRTFSSLTMAWFRRAPGKEREFVAAQKWAGATTYTYYGDSVKGRFTISRDNAKDTVYLQMNSLKPVDTAIYYCAADTSSIVGDPRSPNRYDYWGQGTQVTVSSSPAPELLGGPSVFLFPPKPKDTLMISRTPEVTCVVVDVSHEDPEVKFNWYVDGVEVHNAKTKPREEQYNSTYRVVSVLTVLHQDWLNGKEYKCKVSNKALPAPIEKTISKAKGQPREPQVYTKPPSREEMTKNQVSLSCLVKGFYPSDIAVEWESNGQPENNYKTTVPVLDSDGSFRLASYLTVDKSRWQQGNVFSCSVMHEALHNHYTQKSLSLSPGK
B6: 01B11R3LS VHH Mono-Fc (Fc fusion)
chain: EVQLVESGGGVVQAEDSLRLSCAAPGLPFSSSRMGWFRQAPGKEREFVAAIGWSGRSTYRYYGDSVKGRFTVSGDNAKNTLDLQMKGLKPEDTAVYYCAADPDYYGDYRTSGAWRYWGQGTQVTVSSSPAPELLGGPSVFLFPPKPKDTLMISRTPEVTCVVVDVSHEDPEVKFNWYVDGVEVHNAKTKPREEQYNSTYRVVSVLTVLHQDWLNGKEYKCKVSNKALPAPIEKTISKAKGQPREPQVYTKPPSREEMTKNQVSLSCLVKGFYPSDIAVEWESNGQPENNYKTTVPVLDSDGSFRLASYLTVDKSRWQQGNVFSCSVMHEALHNHYTQKSLSLSPGK
B7: 02G06R3 VHH Mono-Fc (Fc fusion)
chain: EVQLVESGGGLVQAGGSLRLSCAASGRTFDSYAMGWFRQAPGKEREFVAAISWTGGSTDYADSVKGRFTISRDNAKNTVYLQMDSLKPEDTAVYYCAAEVVGRDVTTMYRVSGLEYEYDYWGQGTQVTVSSSPAPELLGGPSVFLFPPKPKDTLMISRTPEVTCVVVDVSHEDPEVKFNWYVDGVEVHNAKTKPREEQYNSTYRVVSVLTVLHQDWLNGKEYKCKVSNKALPAPIEKTISKAKGQPREPQVYTKPPSREEMTKNQVSLSCLVKGFYPSDIAVEWESNGQPENNYKTTVPVLDSDGSFRLASYLTVDKSRWQQGNVFSCSVMHEALHNHYTQKSLSLSPGK
B8: 01C01R2LS VHH Mono-Fc (Fc fusion)
chain: QVQLVESGGGLQQAGGSLRLSCAASGRTVTVMTVGWFRQAPGKEREFVAAITMYGERTYYADSVKGRFTISRDNAKNTVDLQMNSLKPEDAAVYYCAARTYVSGIYDRFDDYNYWGQGTQVTVSSSPAPELLGGPSVFLFPPKPKDTLMISRTPEVTCVVVDVSHEDPEVKFNWYVDGVEVHNAKTKPREEQYNSTYRVVSVLTVLHQDWLNGKEYKCKVSNKALPAPIEKTISKAKGQPREPQVYTKPPSREEMTKNQVSLSCLVKGFYPSDIAVEWESNGQPENNYKTTVPVLDSDGSFRLASYLTVDKSRWQQGNVFSCSVMHEALHNHYTQKSLSLSPGK
B9: 03D12R3 VHH Mono-Fc (Fc fusion)
chain: QVQLVESGGGLVQAGGSLRLSCAASGRTFSSYAMGWFRQAPGKEREFAAVITWNGGSTHYADSVKGRFTISRDNAKNTVYLQMNSLKPEDTAVYYCAADPMNSPYWGQGTQVTVSSSPAPELLGGPSVFLFPPKPKDTLMISRTPEVTCVVVDVSHEDPEVKFNWYVDGVEVHNAKTKPREEQYNSTYRVVSVLTVLHQDWLNGKEYKCKVSNKALPAPIEKTISKAKGQPREPQVYTKPPSREEMTKNQVSLSCLVKGFYPSDIAVEWESNGQPENNYKTTVPVLDSDGSFRLASYLTVDKSRWQQGNVFSCSVMHEALHNHYTQKSLSLSPGK
B10: 01F04R3LS VHH Mono-Fc (Fc fusion)
chain: EVQLVESGGGLVQAGGSLRLSCAASGRTFSRYAMGWFRQAPGKEREFVAAIAWSGGAIYYADFVKGQFTISRDNAKNTVDLEMNRLKPEDTAVYYCGSTRDPRVGDKKFYDYWGQGTQVTVSSSPAPELLGGPSVFLFPPKPKDTLMISRTPEVTCVVVDVSHEDPEVKFNWYVDGVEVHNAKTKPREEQYNSTYRVVSVLTVLHQDWLNGKEYKCKVSNKALPAPIEKTISKAKGQPREPQVYTKPPSREEMTKNQVSLSCLVKGFYPSDIAVEWESNGQPENNYKTTVPVLDSDGSFRLASYLTVDKSRWQQGNVFSCSVMHEALHNHYTQKSLSLSPGK

Here are results for 10 molecules from patent US20220112276A1 (Janssen / Centocor, published 2022).

T2 sequence (A0A2K5WMU9 entry or part of it): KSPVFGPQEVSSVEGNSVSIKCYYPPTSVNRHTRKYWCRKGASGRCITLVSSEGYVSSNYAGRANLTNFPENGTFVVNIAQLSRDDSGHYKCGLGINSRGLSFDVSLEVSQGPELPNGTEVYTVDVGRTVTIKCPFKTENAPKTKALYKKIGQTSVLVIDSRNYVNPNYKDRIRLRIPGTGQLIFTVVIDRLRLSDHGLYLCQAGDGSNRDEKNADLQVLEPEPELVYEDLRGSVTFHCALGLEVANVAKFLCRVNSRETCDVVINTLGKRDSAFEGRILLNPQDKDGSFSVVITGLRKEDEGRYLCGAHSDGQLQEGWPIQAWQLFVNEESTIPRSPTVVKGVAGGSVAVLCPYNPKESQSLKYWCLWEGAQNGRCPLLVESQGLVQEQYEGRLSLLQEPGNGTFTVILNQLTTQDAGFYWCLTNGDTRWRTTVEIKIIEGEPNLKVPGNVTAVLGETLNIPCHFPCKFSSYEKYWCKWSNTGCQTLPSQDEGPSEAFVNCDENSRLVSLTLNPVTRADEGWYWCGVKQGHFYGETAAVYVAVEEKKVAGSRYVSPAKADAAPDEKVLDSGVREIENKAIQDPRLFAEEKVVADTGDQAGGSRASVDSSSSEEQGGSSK

In one experiment the target is T1, mouse pIgR extracellular domain (ECD) (mouse, UniProt O70570 19-645).
T1 construct: Bought from R&D Systems (Cat 2800-PG-050); also called mpIgR ECD
T1 sequence: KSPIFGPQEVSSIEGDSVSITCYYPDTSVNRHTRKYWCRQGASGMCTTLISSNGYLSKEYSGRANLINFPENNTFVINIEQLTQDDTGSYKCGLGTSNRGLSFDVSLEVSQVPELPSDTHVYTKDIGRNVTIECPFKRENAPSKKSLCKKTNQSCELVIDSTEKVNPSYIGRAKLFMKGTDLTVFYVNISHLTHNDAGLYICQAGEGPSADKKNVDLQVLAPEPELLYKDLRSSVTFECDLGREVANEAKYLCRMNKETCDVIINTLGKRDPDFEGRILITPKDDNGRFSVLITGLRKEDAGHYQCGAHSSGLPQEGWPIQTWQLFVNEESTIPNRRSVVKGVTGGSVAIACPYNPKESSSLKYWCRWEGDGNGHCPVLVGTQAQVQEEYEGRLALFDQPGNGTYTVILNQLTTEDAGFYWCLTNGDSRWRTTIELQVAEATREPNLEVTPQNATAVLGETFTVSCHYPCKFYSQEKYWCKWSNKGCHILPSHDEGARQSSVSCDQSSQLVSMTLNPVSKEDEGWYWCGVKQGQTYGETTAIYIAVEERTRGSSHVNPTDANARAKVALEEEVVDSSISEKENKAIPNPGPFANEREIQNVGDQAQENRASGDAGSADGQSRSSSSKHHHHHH
The experiment in a line: SPR, VHH captured by anti-Fc, ECD analyte. A digest of the protocol:
(§1)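 Anti-human Fc surface captured VHH at 0.5 ug/ml (~200-300 RU); running buffer HBSP with 100 ug/ml BSA, 30 μL/min. Single-cycle kinetics with ECD injected low to high from 30 nM in 3-fold dilutions, dissociation 30 min. Double-referenced data globally fit to 1:1 Langmuir model for kon, koff, KD.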
In turn, B1 registered a Kd of 5.58 nM.

For B2, binding was characterised by a dissociation constant (Kd) of 61.8 nM.

B3 returned a Kd of 4.38 nM.

Regarding B4, the dissociation constant (Kd) was determined as 23.3 nM.

In turn, B5 gave an equilibrium dissociation constant (Kd) of 101 nM.

With B6, binding was put at a Kd of 12.8 nM.

B7 yielded a dissociation constant (Kd) of 32.3 nM.

As to B8, binding was characterised by a dissociation constant (Kd) of 11.3 nM.

A further experiment addresses T2, cynomolgus monkey pIgR extracellular domain (cynomolgus monkey, UniProt A0A2K5WMU9 19-638).
T2 construct: extracellular domain
The experiment in a line: SPR, VHH captured by anti-Fc, ECD analyte. A digest of the protocol:
as §1
In turn, B1 yielded a Kd of 361 nM.

Regarding B9, the Kd turned out to be 0.905 nM.

B10 yielded an equilibrium dissociation constant (Kd) of 236 nM.

The target in another experiment is T3, human pIgR extracellular domain (ECD) (human, UniProt P01833 19-638).
T3 construct: Bought from R&D Systems (Cat 2717-PG-050); also called hpIgR ECD
T3 sequence (P01833 other isoform, or with tags, fused parts or gaps): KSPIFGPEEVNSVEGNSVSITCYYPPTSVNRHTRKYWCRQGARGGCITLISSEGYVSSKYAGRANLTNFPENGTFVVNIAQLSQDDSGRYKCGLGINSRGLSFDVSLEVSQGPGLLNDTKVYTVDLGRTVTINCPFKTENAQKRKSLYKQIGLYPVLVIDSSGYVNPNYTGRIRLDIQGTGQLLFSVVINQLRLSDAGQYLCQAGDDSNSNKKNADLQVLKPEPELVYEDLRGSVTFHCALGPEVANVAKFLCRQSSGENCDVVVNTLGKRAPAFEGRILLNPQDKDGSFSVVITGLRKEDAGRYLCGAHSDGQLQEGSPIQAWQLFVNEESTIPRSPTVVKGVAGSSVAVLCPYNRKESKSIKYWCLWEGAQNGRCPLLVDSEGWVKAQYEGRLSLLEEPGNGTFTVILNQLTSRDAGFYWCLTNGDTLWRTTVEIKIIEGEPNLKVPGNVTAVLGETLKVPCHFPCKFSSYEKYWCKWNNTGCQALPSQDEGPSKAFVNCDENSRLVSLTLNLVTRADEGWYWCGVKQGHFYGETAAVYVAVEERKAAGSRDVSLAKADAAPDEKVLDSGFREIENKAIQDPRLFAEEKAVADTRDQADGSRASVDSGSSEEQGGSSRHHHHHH
As to the kind of experiment: SPR, VHH captured by anti-Fc, ECD analyte. A digest of the protocol: as §1
For the molecule B1, the Kd worked out at 2.63 nM.

Turning to B9, the dissociation constant Kd came out at 0.606 nM.

In turn, B10 had a Kd of 23.8 nM.

Another experiment addresses T4, rat pIgR extracellular domain (rat, UniProt P15083 19-643).
T4 construct: extracellular domain
T4 sequence (looked up): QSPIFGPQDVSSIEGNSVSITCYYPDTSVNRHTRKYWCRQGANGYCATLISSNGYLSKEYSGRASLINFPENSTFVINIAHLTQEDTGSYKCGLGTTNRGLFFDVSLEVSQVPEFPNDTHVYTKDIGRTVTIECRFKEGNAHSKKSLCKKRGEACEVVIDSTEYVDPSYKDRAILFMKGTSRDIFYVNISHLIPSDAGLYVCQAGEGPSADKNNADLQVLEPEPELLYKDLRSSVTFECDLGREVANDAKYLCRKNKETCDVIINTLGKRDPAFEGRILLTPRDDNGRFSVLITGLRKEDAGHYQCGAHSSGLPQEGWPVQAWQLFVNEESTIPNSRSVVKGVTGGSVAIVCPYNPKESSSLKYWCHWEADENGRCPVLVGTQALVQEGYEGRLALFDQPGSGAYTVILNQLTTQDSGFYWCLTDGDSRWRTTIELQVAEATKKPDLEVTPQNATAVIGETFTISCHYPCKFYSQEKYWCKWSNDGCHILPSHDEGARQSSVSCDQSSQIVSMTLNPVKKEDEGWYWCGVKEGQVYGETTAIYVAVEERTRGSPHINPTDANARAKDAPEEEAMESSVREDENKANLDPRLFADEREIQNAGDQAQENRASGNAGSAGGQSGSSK
The experiment in a line: SPR, VHH captured by anti-Fc, ECD analyte. A digest of the protocol: as §1
Take B2: binding was put at a Kd of 96.9 nM.

In turn, B3 returned a Kd of 2.37 nM.

In turn, B5 had a Kd of 88.2 nM.

On to B6, for which binding was characterised by a dissociation constant (Kd) of 19.9 nM.

B7 yielded a Kd of 73.5 nM.
